Measured values as given in PMC7846786, “DutaFabs are engineered therapeutic Fab fragments that can bind two targets simultaneously” (Nature Communications, 2021).

How the values were obtained:
Settings in all cases: both partners purified
[1] = target: T1, PDGF-BB (Homo sapiens, UniProt P01127); assay: kinetic exclusion assay (KinExA); in solution; 4 h pre-incubation of 50 pM DutaFab with 244 fM-4 nM PDGF-BB, or of 100 pM DutaFab with 122 fM-2 nM VEGFA-121; duplicate 1:2 titration series; 25 °C
T1 construct: platelet-derived growth factor subunit B, human, recombinant; homodimer PDGF-BB; as I recall, the commercial protein is the 109-residue mature B chain (residues 82-190 of the precursor); also called recombinant human PDGF-BB; source: 100-13A is printed for crystallization) and from R&D Systems
T1 sequence (P01127 82-190): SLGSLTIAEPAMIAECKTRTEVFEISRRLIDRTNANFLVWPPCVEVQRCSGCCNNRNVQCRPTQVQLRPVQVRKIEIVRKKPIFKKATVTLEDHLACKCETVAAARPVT

[2] = target: T2, human VEGFA-121 (Homo sapiens, UniProt P15692); assay: as above
T2 construct: homodimer
T2 sequence (P15692 other isoform, or with tags, fused parts or gaps): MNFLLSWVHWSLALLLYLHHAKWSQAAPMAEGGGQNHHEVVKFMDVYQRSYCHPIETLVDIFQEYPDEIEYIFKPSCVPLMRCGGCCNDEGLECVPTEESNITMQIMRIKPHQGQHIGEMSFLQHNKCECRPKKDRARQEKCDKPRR

[3] = target: T1, PDGF-BB; assay: as above; remark: listed apart in the source
[4] = target: T3, rat VEGF-A121 (Rattus norvegicus, UniProt P16612-4, strain); assay: SPR; affinities of the Fab fragments used in the in-vivo study for human and rat VEGF-A121, expressed as KD (nM); who was immobilised and the conditions not given
T3 construct: The homodimer is stated for VEGFA in general

[5] = target: T2, human VEGFA-121; assay: as above
[6] = target: T4, recombinant human PDGF-BB (human, UniProt P01127); assay: ELISA; IC50 competition ELISA: rhVEGFR-1-Fc (1 µg/mL) or rhPDGFRβ-Fc (0.5 µg/mL) coated; ligand (5 pM VEGFA-165, 8 pM VEGFA-121 or 5 pM PDGF-BB) pre-incubated 1.5 h with 1:2 dilutions of Fab in PBS, 0.1% Tween-20, 1% BSA; 10 min on the plate at RT; free ligand detected with biotinylated anti-hVEGF or anti-hPDGF-BB goat IgG; 4-parameter fit
T4 construct: platelet-derived growth factor subunit B, human; homodimer; Two suppliers and two Peprotech catalogue numbers are printed; also called PDGF-BB dimer; source: bought: R&D Systems (ELISAs); bought: Peprotech (catalog number 100-14B for panning; 100-13A printed for crystallisation)
T4 sequence (P01127 82-190): as the sequence (P01127 82-190) above

[7] = target: T5, recombinant human VEGFA-165 (Homo sapiens, UniProt P15692-4, strain); assay: as above
T5 construct: homodimer; source: bought: Humanzyme
T5 sequence (P15692 whole entry, looked up, change not shown): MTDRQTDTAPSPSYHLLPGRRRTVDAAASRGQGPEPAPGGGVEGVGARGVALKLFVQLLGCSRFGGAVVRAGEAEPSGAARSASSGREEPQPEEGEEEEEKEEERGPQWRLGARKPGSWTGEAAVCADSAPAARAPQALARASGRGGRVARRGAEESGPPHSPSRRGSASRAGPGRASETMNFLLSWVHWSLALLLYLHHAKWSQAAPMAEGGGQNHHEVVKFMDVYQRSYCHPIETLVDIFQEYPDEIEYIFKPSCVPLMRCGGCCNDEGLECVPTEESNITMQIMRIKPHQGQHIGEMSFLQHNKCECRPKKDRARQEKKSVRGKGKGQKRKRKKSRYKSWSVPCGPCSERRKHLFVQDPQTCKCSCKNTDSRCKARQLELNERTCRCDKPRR

[8] = target: T6, recombinant human VEGFA-121 (Homo sapiens, strain); assay: as above
T6 construct: homodimer; Two suppliers are named for different experiments; also called VEGFA dimer; source: bought: Peprotech (catalog number 100-20A; panning, crystallisation); bought: Humanzyme (ELISAs)
T6 chain: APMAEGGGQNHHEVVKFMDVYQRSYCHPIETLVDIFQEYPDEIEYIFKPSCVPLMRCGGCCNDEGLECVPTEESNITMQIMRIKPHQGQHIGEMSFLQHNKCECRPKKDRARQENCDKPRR

B1: DutaFab VP mat YHE (Fab, V domains shown)
VH: DLQLVESGGGLVKPGGSLRLSCAADGWWFGYTDMSWVRQAPGKGLEWVGSISYKGGSTYYNTKFIGRFTISRDDDTNTLYLQMNSLRAEDTAVYYCARDDGYFDTWGQGTLVTVSS
VL: AIYMHQEPSSLSASVGDRVTITCHGSYWLSNYLAWYQQKPGKAPKLLIYDGKEREHGVPSRFSGSGSHEDYTLTISSLQPEDFATYYCQQYRYHPYTFGHGTKVEIK
notes: human CH1 constant domain, as the heavy chain of Dm1 (PDB 6T9D, 6T9E); that R108 may be the first residue of the UniProt entry, so it must not be doubled; Co-operativity variant of Dm1; the PDB entries hold the parent VP mat; also called clone VP mat YHE; source: periplasmatic expression in E. coli or HEK Expi293 cells, purified (kappa select, then cation exchange or SEC)
Kd [1]: 0.006 nM
Kd [2]: 0.00323 nM
Kd [3]: 0.00402 nM
Kd [4]: 0.043 nM
Kd [5]: 0.005 nM

B2: DutaFab clone VP (initial bispecific DutaFab against VEGFA and PDGF-BB) (Fab, V domains shown)
VH: EEQLVESGGGLVQPGGSLRLSCAASGWWFEYTDMSWVRQAPGQGLEWVGSISPSGGSTYYNTNFIGRFTISRDDSKNTLYLQMNSLRDEDTAVYYCARDEGYFDEWGQGTLVTVSS
VL: AIQMTQSPSSLSASVGDRVTITCQASYWLHKYLAWYQQKPGQAPKLLIYDASELEYGVPDRFSGSGSGTDFTLTISSLEPEDFAVYYCQNYRYHPYTFGQGTKLEIK
notes: human VH3 scaffold with CH1; H-side paratope against PDGF-BB; human Vk1 scaffold with Ck; L-side paratope against VEGFA; Bispecific Fab with two paratopes in one Fv; also called DutaFab VP; original bispecific DutaFab VP; source: periplasmic expression in E. coli or HEK Expi293 cells, purified (kappa select, then cation exchange or SEC)
IC50 [6]: 21 nM
IC50 [7]: 0.023 nM
IC50 [8]: 0.894 nM
